Test results reported in PMC10646970.

Biological target: PD-L1 (programmed cell death ligand 1), N-terminal domain

For “wild-type (natural) PD-1 (from UniProt Q15116 25-170) (natural protein)”, which increase in IFN-gamma production in MDA-MB-231/PBMC coculture, 10 ug/mL protein, 48 h, ELISA; PD-L1 is that on the tumour cells; pair blocked: PD-1 on PBMCs / PD-L1 is on record?
Its increase in IFN-gamma production in MDA-MB-231/PBMC coculture, 10 ug/mL protein, 48 h, ELISA; PD-L1 is that on the tumour cells; pair blocked: PD-1 on PBMCs / PD-L1 is 92%.
